Substrate: CC(=O)N[C@H](C(=O)N[C@@H](CC(=O)O)C(=O)N[C@H](C(=O)N[C@@H](C)C(=O)N[C@@H](CC(=O)O)C(=O)Nc1ccc([N+](=O)[O-])cc1)C(C)C)C(C)C
Test: In vitro proteolysis assay with chromogenic para-nitroaniline-labeled peptide substrate (absorbance 405 nm)
Assay type: biochemical, Human
Settings: other: pNA substrate cleaved by N-His Ich-1, 30° C.
From the text: To identify peptide substrates for Ich-1, candidate peptides were used in in vitro proteolysis assays with recombinant Ich-1 protein. Human Ich-1 enzyme (the nucleotide and amino acid sequences for which are disclosed in Wang, L., et al. (1994) Cell 78:739-750) was expressed recombinantly with an N-terminal polyhistidine tag by methods described in Kamens, J., et al. (1995) J. Biol. Chem. 270:15250-15256. The resulting enzyme, called N-His Ich-1, contains Ich-1 amino acid residues 167-435, with an initiator and polyhistidine tag fused to the amino terminus. […]
A peptidic aldehyde inhibitor of Ich-1 was designed based upon the optimal peptide substrate (Peptide 43) described in Example 3. […] The ability of this peptidic aldehyde inhibitor to inhibit N-His Ich-1 activity was determined in in vitro proteolysis assays using a chromogenic para-nitroaniline-labeled peptide substrate. […]
To perform the proteolysis assay, N-His Ich-1 was preincubated for 30 minutes at 30° C. in 160 μl of a reaction buffer containing 100 mM sodium acetate (pH 6.2), 20% (v/v) glycerol, 5 mM DTT, 0.5 mM EDTA, […]. […] The incubation of N-His Ich-1 with the peptide substrate at 30° C. was continued, and the catalytic hydrolysis of peptide substrate was monitored by the change in absorbance of the samples at 405 nm due to release of pNA as a function of time. […]

B1: N-His Ich-1 (Homo sapiens) (protein)
chain 1: YQTHFQLAYRLQSRPRGLALVLSNVHFTGEKELEFRSGGDVDHSTLVTLFKLLGYDVHVLCDQTAQEMQEKLQNFAQLPAHRVTDSCIVALLSHGVEGAIYGVDGKLLQLQEVFQLFDNANCPSLQNKPKMFFIQACRGDETDRGVDQQD
chain 2: GKNHAGSPGCEESDAGKEKLPKMRLPTRSDMICGYACLKGTAAMRNTKRGSWYIEALAQVFSERACDMHVADMLVKVNALIKDREGYAPGTEFHRCKEMSEYCSTLCRHLYLFPGHPPT
notes: contains Ich-1 amino acid residues 167-435, with an initiator and polyhistidine tag fused to the amino terminus; initiator (Met) + polyhistidine tag (N); made in house
B1 was tested, and the Km was 42 µM.
